# System: Escherichia coli TOP10
# Assay: shrunken log2 fold change of peptide-encoding DNA abundance (4.5 h post-induction vs induction); higher = less antimicrobial activity (less host growth inhibition)
# Settings: time post-induction: 4.5 h; library: site-saturation at positions 5, 18, 19, 20
# 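Further: peptides expressed intracellularly from a pBAD plasmid library in pooled LB shake-flask culture, induced with 0.3% L-arabinose, DNA abundance read by NGS, three biological replicates, DESeq2 with apeglm shrinkage.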
row,Sequence,shrunken log2 fold change
1,RRIRYRPPRLPRPRPRPQTNPRP,-0.711
2,RRIRYRPPRLPRPRPRPQTRPRP,-0.322
3,RRIRYRPPRLPRPRPRPQTSPRP,-1.22
4,RRIRYRPPRLPRPRPRPQVSPRP,-0.849
5,RRIRYRPPRLPRPRPRPQYAPRP,-0.262
6,RRIRYRPPRLPRPRPRPRASPRP,-0.412
7,RRIRYRPPRLPRPRPRPRAVPRP,0.0585
8,RRIRYRPPRLPRPRPRPREHPRP,-0.00116
9,RRIRYRPPRLPRPRPRPRELPRP,-0.0942
10,RRIRYRPPRLPRPRPRPRENPRP,0.0246
11,RRIRYRPPRLPRPRPRPRFCPRP,-0.17
12,RRIRYRPPRLPRPRPRPRFIPRP,-0.671
13,RRIRYRPPRLPRPRPRPRFSPRP,-0.144
14,RRIRYRPPRLPRPRPRPRGGPRP,0.139
15,RRIRYRPPRLPRPRPRPRLEPRP,-0.0441
16,RRIRYRPPRLPRPRPRPRLWPRP,0.14
17,RRIRYRPPRLPRPRPRPRNHPRP,-0.336
18,RRIRYRPPRLPRPRPRPRNPPRP,0.0734
19,RRIRYRPPRLPRPRPRPRPDPRP,-0.0672
20,RRIRYRPPRLPRPRPRPRPLPRP,-0.3
21,RRIRYRPPRLPRPRPRPRPMPRP,-0.227
22,RRIRYRPPRLPRPRPRPRPYPRP,-0.259
23,RRIRYRPPRLPRPRPRPRQAPRP,0.0877
24,RRIRYRPPRLPRPRPRPRQKPRP,0.114
25,RRIRYRPPRLPRPRPRPRQTPRP,-0.0574

row,Sequence,shrunken log2 fold change
1,RRIRYRPPRLPRPRPRPRRKPRP,0.0824
2,RRIRYRPPRLPRPRPRPRTIPRP,-0.228
3,RRIRYRPPRLPRPRPRPRTLPRP,-0.537
4,RRIRYRPPRLPRPRPRPRTQPRP,0.0444
5,RRIRYRPPRLPRPRPRPRTRPRP,-0.0272
6,RRIRYRPPRLPRPRPRPRTSPRP,-0.169
7,RRIRYRPPRLPRPRPRPRTYPRP,-0.71
8,RRIRYRPPRLPRPRPRPRVCPRP,0.0157
9,RRIRYRPPRLPRPRPRPRVPPRP,-0.0432
10,RRIRYRPPRLPRPRPRPRVYPRP,-0.847
11,RRIRYRPPRLPRPRPRPSACPRP,-0.301
12,RRIRYRPPRLPRPRPRPSAEPRP,-0.0651
13,RRIRYRPPRLPRPRPRPSDQPRP,-0.235
14,RRIRYRPPRLPRPRPRPSDRPRP,-0.307
15,RRIRYRPPRLPRPRPRPSEAPRP,-0.096
16,RRIRYRPPRLPRPRPRPSGNPRP,-0.067
17,RRIRYRPPRLPRPRPRPSIEPRP,-1.02
18,RRIRYRPPRLPRPRPRPSKLPRP,-0.917
19,RRIRYRPPRLPRPRPRPSKVPRP,-1.04
20,RRIRYRPPRLPRPRPRPSLRPRP,-0.9
21,RRIRYRPPRLPRPRPRPSMCPRP,-0.24
22,RRIRYRPPRLPRPRPRPSMWPRP,-1.68
23,RRIRYRPPRLPRPRPRPSMYPRP,-0.418
24,RRIRYRPPRLPRPRPRPSNEPRP,-0.474
25,RRIRYRPPRLPRPRPRPSQDPRP,-0.561

row,Sequence,shrunken log2 fold change
1,RRIRYRPPRLPRPRPRPSQTPRP,-0.0989
2,RRIRYRPPRLPRPRPRPSSFPRP,-0.0941
3,RRIRYRPPRLPRPRPRPSTMPRP,-0.434
4,RRIRYRPPRLPRPRPRPSVFPRP,-0.219
5,RRIRYRPPRLPRPRPRPSWCPRP,-0.0502
6,RRIRYRPPRLPRPRPRPSWFPRP,-0.942
7,RRIRYRPPRLPRPRPRPTAKPRP,0.0338
8,RRIRYRPPRLPRPRPRPTAPPRP,-0.25
9,RRIRYRPPRLPRPRPRPTCSPRP,-0.0789
10,RRIRYRPPRLPRPRPRPTCWPRP,0.0987
11,RRIRYRPPRLPRPRPRPTDFPRP,-0.325
12,RRIRYRPPRLPRPRPRPTEFPRP,-0.465
13,RRIRYRPPRLPRPRPRPTFDPRP,-0.76
14,RRIRYRPPRLPRPRPRPTFHPRP,-0.649
15,RRIRYRPPRLPRPRPRPTFYPRP,-0.803
16,RRIRYRPPRLPRPRPRPTGTPRP,-0.172
17,RRIRYRPPRLPRPRPRPTHLPRP,-0.0864
18,RRIRYRPPRLPRPRPRPTMKPRP,-0.285
19,RRIRYRPPRLPRPRPRPTPPPRP,0.421
20,RRIRYRPPRLPRPRPRPTPWPRP,-0.145
21,RRIRYRPPRLPRPRPRPTQTPRP,0.0249
22,RRIRYRPPRLPRPRPRPTSPPRP,-0.0595
23,RRIRYRPPRLPRPRPRPTSYPRP,-0.0849
24,RRIRYRPPRLPRPRPRPTTQPRP,-0.597
25,RRIRYRPPRLPRPRPRPTVAPRP,0.0691

row,Sequence,shrunken log2 fold change
1,RRIRYRPPRLPRPRPRPTVEPRP,0.0629
2,RRIRYRPPRLPRPRPRPTVGPRP,0.0163
3,RRIRYRPPRLPRPRPRPTWIPRP,-1.08
4,RRIRYRPPRLPRPRPRPTYFPRP,-0.485
5,RRIRYRPPRLPRPRPRPTYLPRP,-0.824
6,RRIRYRPPRLPRPRPRPVDFPRP,-0.226
7,RRIRYRPPRLPRPRPRPVDKPRP,-0.00804
8,RRIRYRPPRLPRPRPRPVDPPRP,-0.0356
9,RRIRYRPPRLPRPRPRPVDQPRP,-0.611
10,RRIRYRPPRLPRPRPRPVDYPRP,-0.213
11,RRIRYRPPRLPRPRPRPVFDPRP,-1.18
12,RRIRYRPPRLPRPRPRPVFGPRP,-0.415
13,RRIRYRPPRLPRPRPRPVGHPRP,-0.076
14,RRIRYRPPRLPRPRPRPVHKPRP,-0.564
15,RRIRYRPPRLPRPRPRPVHMPRP,-0.0179
16,RRIRYRPPRLPRPRPRPVHQPRP,-0.0229
17,RRIRYRPPRLPRPRPRPVIAPRP,-0.354
18,RRIRYRPPRLPRPRPRPVIWPRP,-0.262
19,RRIRYRPPRLPRPRPRPVMYPRP,-0.134
20,RRIRYRPPRLPRPRPRPVNCPRP,0.0039
21,RRIRYRPPRLPRPRPRPVNKPRP,-0.0557
22,RRIRYRPPRLPRPRPRPVNPPRP,-0.0594
23,RRIRYRPPRLPRPRPRPVPEPRP,-0.294
24,RRIRYRPPRLPRPRPRPVQHPRP,-0.247
25,RRIRYRPPRLPRPRPRPVRFPRP,-0.0685

row,Sequence,shrunken log2 fold change
1,RRIRYRPPRLPRPRPRPVRGPRP,0.393
2,RRIRYRPPRLPRPRPRPVRIPRP,-0.053
3,RRIRYRPPRLPRPRPRPVTEPRP,-0.134
4,RRIRYRPPRLPRPRPRPVVIPRP,-0.868
5,RRIRYRPPRLPRPRPRPVWLPRP,-0.0438
6,RRIRYRPPRLPRPRPRPVWPPRP,9.23e-05
7,RRIRYRPPRLPRPRPRPVWQPRP,-0.288
8,RRIRYRPPRLPRPRPRPWCQPRP,-0.243
9,RRIRYRPPRLPRPRPRPWFIPRP,-0.054
10,RRIRYRPPRLPRPRPRPWGHPRP,-0.275
11,RRIRYRPPRLPRPRPRPWINPRP,-0.803
12,RRIRYRPPRLPRPRPRPWKEPRP,-0.0075
13,RRIRYRPPRLPRPRPRPWLGPRP,-0.0293
14,RRIRYRPPRLPRPRPRPWMPPRP,-0.417
15,RRIRYRPPRLPRPRPRPWMVPRP,-0.523
16,RRIRYRPPRLPRPRPRPWNAPRP,-0.397
17,RRIRYRPPRLPRPRPRPWSHPRP,-0.05
18,RRIRYRPPRLPRPRPRPWTPPRP,-0.0576
19,RRIRYRPPRLPRPRPRPWVMPRP,-0.195
20,RRIRYRPPRLPRPRPRPWVYPRP,-0.234
21,RRIRYRPPRLPRPRPRPWWDPRP,-0.266
22,RRIRYRPPRLPRPRPRPYAFPRP,-0.0129
23,RRIRYRPPRLPRPRPRPYARPRP,-0.0987
24,RRIRYRPPRLPRPRPRPYCIPRP,-1.32
25,RRIRYRPPRLPRPRPRPYDHPRP,-0.474

row,Sequence,shrunken log2 fold change
1,RRIRYRPPRLPRPRPRPYEVPRP,-0.343
2,RRIRYRPPRLPRPRPRPYFQPRP,-1.6
3,RRIRYRPPRLPRPRPRPYFRPRP,-0.836
4,RRIRYRPPRLPRPRPRPYFTPRP,-0.981
5,RRIRYRPPRLPRPRPRPYFVPRP,-0.858
6,RRIRYRPPRLPRPRPRPYKYPRP,-0.238
7,RRIRYRPPRLPRPRPRPYLAPRP,-0.682
8,RRIRYRPPRLPRPRPRPYLPPRP,-0.174
9,RRIRYRPPRLPRPRPRPYLWPRP,-0.777
10,RRIRYRPPRLPRPRPRPYQNPRP,-0.467
11,RRIRYRPPRLPRPRPRPYQPPRP,0.0857
12,RRIRYRPPRLPRPRPRPYQYPRP,-1.05
13,RRIRYRPPRLPRPRPRPYRTPRP,-0.588
14,RRIRYRPPRLPRPRPRPYSGPRP,-1
15,RRIRYRPPRLPRPRPRPYTHPRP,-0.508
16,RRIRYRPPRLPRPRPRPYTWPRP,-0.571
17,RRIRYRPPRLPRPRPRPYVPPRP,-0.77
18,RRIRYRPPRLPRPRPRPYYGPRP,-0.0846
19,RRIRYRPPRLPRPRPRPYYPPRP,-0.293
20,RRIRYRPPRLPRPRPRPYYRPRP,-0.161
21,RRIRYRPPRLPRPRPRPYYSPRP,0.0106
